In article PMC6039025 one finds Kd data, which are given here for 1 substance.

Broadly, the Kd is the constant that tells how readily two partners part at equilibrium. Higher therefore signals weaker binding.

Common to all, as to experiment: fluorescence anisotropy
Conditions in all cases: Hill slope fit; 10 nM 6-FAM ssDNA, 0.001-6 uM protein, 20 min at 30 C, read at room temperature; binding buffer not stated (protein storage FP buffer: 200 mM NaCl, 50 mM …)
(Fluorescence polarisation rises when a labelled molecule tumbles more slowly, as on binding a larger partner.)

The test system of series [1] is condensin holocomplex, Smc4-K191M (Saccharomyces cerevisiae (overexpressed in strain D1074)).
Series [2] concerns condensin holocomplex, Smc4-L1335A (Saccharomyces cerevisiae (overexpressed in strain D1074)).
Series [3] deals with condensin holocomplex, Smc4-A1376S-Q1377A (Saccharomyces cerevisiae (overexpressed in strain D1074)).
The test system of series [4] is condensin holocomplex, wild-type Smc4 (Saccharomyces cerevisiae (overexpressed in strain D1074)).
For series [5], the system named is condensin holocomplex, Smc4-L1333I-L1335A (Saccharomyces cerevisiae (overexpressed in strain D1074)).
Series [6] relates to condensin holocomplex, Smc4-L1333V-L1335A (Saccharomyces cerevisiae (overexpressed in strain D1074)).
Series [7] relates to condensin holocomplex, Smc4-Q1377A (Saccharomyces cerevisiae (overexpressed in strain D1074)).

In the case of 6-FAM 60-nt ssDNA, the equilibrium dissociation constant (Kd) amounted to 76.7 nM in series [1]; 193 nM in series [2]; 171 nM in series [3]; 252 nM in series [4]; 92.8 nM in series [5]; 148 nM in series [6]. This substance registered a Kd in series [7] of 216 nM.
